The text below walks through data of patent US20240165282A1, “CONFORMATIONAL CONSTRAINED SOMATOSTATIN RECEPTOR 3 PEPTIDE LIGANDS AND THEIR CONJUGATES AND USES THEREOF” (STARGET PHARMA LTD., priority 2021, published 2024).

The experiment deals with human cloned somatostatin receptor 2 (human) (UniProt P30874). Briefly: cell-based or functional assay.
human cloned somatostatin receptor 2 (human), sequence (P30874 whole entry): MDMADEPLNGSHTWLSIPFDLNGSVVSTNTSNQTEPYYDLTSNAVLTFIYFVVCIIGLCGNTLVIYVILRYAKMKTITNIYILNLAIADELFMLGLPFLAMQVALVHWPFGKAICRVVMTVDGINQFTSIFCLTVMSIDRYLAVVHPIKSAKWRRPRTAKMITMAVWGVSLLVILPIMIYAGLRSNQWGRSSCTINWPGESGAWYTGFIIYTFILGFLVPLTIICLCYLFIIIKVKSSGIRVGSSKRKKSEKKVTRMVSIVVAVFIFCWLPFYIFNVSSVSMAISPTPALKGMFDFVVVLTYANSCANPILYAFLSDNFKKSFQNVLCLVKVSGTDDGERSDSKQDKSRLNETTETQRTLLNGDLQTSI

“SRIF-28 (from UniProt P61278 89-116) (ligand)” returned a Cellular Internalization EC50 (β-Arrestin Luminescence Assay) of 3 nM and an Efficacy - maximal response of 47500 RLU.
